Test results reported in patent US20240261333A1 (published 2024).

How the values were obtained:
Assay in all cases: co-IP, anti-FLAG, lysate of cells with C-FLAG B3GNT2; mass spectrometry
FUBP3 = biological target: T1, FUBP3 (human, UniProt Q96I24 2-572)
T1 construct: also called NP_003925.1 (+2)
T1 sequence (looked up): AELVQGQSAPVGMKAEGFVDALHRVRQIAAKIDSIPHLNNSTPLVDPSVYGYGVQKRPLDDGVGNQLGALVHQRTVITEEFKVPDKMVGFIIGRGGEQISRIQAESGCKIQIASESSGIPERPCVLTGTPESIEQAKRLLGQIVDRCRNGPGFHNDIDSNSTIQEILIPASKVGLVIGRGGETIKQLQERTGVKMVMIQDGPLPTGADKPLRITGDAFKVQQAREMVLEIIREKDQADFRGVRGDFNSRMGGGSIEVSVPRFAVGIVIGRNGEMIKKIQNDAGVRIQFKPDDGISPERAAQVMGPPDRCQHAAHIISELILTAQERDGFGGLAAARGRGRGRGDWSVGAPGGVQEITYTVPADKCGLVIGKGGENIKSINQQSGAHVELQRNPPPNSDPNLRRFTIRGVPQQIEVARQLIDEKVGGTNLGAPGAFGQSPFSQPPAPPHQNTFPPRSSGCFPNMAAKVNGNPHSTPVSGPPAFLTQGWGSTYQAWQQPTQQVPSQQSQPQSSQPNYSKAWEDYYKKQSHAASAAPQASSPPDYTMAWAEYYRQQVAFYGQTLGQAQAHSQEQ
Method: (§1) Cells were plated in 10-cm cell culture dishes and grown to 60-80% confluency. For each condition, two biological replicates were harvested for co-IP. Cells were washed with PBS and 4 mL of lysis buffer (20 mM HEPES, 1% Triton X-100, 150 mM NaCl, 1 mM EDTA, and 10% glycerol) containing protease inhibitor cocktail was added. Cells were scraped and lysate was incubated at 4° C. under rotary agitation for 1 h. Lysate was centrifuged at 14,000×g for 10 min at 4° C. Supernatant was transferred to a new tube and an aliquot was taken as the input. […] For Western blots, 10 μg/mL Chicken Anti-FLAG (Aves labs ET-DY100) and IgY control (R&D Systems AB-101-C) antibodies were biotinylated (Thermo Fisher Scientific 90407) and added to the respective conditions. Lysates with antibodies were incubated at 4° C. under rotary agitation overnight. For each mL of lysate, 50 μL of Pierce Protein A/G Magnetic Beads (Mass spectrometry; Thermo Fisher Scientific 88803) or Pierce Streptavidin Magnetic Beads (Western blot; Thermo Fisher Scientific 88817) was washed twice with lysis buffer. Lysates with antibodies were added to the beads and incubated at 4° C. under rotary agitation for 4 h. Beads were washed with lysis buffer 3 times and resuspended in lysis buffer for storage.
(§2) Magnetic beads were resuspended in 100 mM Tris pH 7.8, reduced, alkylated and digested with trypsin at 37° ° C. overnight. This solution was subjected to solid phase extraction to concentrate the peptides and remove unwanted reagents followed by injection onto a Shimadzu HPLC with fraction collector. Eight fractions were collected and after concentration were injected on a Waters NanoAcquity HPLC equipped with a self-packed Aeris 3 μm C18 analytical column 0.075 mm by 20 cm, (Phenomenex). Peptides were eluted using standard reverse-phase gradients. The effluent from the column was analyzed using a Thermo Orbitrap Elite mass spectrometer (nanospray configuration) operated in a data dependent manner for 54 minutes. The resulting fragmentation spectra were correlated against the known database using Proteome Discover 1.4 (Thermo Fisher Scientific).

SAMM50 = biological target: T2, SAMM50 (human, UniProt Q9Y512 1-469)
T2 construct: also called NP_056195.3
T2 sequence (looked up): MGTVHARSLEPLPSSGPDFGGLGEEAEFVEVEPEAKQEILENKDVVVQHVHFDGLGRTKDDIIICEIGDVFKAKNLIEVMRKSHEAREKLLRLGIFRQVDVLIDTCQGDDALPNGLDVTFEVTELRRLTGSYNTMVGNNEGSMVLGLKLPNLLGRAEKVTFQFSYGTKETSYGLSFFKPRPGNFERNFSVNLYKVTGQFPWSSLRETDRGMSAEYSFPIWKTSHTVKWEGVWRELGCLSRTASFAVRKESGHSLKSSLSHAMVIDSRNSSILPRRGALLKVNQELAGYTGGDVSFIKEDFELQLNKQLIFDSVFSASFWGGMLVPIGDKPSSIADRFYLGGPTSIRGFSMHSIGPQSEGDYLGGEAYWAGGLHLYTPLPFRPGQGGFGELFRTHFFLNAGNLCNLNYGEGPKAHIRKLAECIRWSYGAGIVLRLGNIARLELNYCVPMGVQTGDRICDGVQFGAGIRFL
Method: as §1, §2

G3BP1 = biological target: T3, G3BP1 (human, UniProt Q13283 2-466)
T3 construct: also called NP_005745.1
Method: as §1, §2

RBM39 = biological target: T4, RBM39 (human, UniProt Q14498-3 2-508, limits assumed)
T4 construct: also called NP_001310351.1 (+3)
T4 sequence (looked up): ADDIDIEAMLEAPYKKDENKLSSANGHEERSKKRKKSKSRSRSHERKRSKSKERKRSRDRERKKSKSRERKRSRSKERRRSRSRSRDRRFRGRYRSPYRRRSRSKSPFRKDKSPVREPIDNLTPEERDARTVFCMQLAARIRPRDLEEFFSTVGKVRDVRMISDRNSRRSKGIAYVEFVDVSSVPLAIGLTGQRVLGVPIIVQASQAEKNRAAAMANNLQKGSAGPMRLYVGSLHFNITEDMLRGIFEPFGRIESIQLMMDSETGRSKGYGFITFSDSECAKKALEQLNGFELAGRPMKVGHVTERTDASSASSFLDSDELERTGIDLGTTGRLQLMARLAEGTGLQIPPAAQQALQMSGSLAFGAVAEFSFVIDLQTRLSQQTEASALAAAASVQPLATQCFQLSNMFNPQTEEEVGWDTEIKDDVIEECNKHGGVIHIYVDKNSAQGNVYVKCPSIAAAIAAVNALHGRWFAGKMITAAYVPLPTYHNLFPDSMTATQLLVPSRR
Method: as §1, §2

T3 sequence (Q13283 2-466 limits assumed): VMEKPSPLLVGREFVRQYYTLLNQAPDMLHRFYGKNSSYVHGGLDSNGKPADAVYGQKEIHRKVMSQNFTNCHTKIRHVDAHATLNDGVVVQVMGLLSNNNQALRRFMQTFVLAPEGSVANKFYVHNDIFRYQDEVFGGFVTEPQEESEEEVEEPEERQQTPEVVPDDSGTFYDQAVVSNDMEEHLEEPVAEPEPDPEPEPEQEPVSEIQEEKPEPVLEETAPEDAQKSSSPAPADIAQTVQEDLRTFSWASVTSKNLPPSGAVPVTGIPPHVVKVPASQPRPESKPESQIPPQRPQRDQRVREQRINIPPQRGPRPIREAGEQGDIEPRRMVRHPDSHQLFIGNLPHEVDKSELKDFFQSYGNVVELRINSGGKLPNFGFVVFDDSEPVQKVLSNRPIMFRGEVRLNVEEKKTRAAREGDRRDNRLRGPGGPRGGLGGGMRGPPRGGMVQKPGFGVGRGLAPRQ

co-IP mass spectrometry count (FUBP3): 9 | co-IP mass spectrometry count (SAMM50): 0 | co-IP mass spectrometry count (G3BP1): 33 | co-IP mass spectrometry count (RBM39): 5
B1: C-terminal FLAG tagged B3GNT2 (enzyme, human, UniProt Q9NY97 1-397, looked up)
chain: MSVGRRRIKLLGILMMANVFIYFIMEVSKSSSQEKNGKGEVIIPKEKFWKISTPPEAYWNREQEKLNRQYNPILSMLTNQTGEAGRLSNISHLNYCEPDLRVTSVVTGFNNLPDRFKDFLLYLRCRNYSLLIDQPDKCAKKPFLLLAIKSLTPHFARRQAIRESWGQESNAGNQTVVRVFLLGQTPPEDNHPDLSDMLKFESEKHQDILMWNYRDTFFNLSLKEVLFLRWVSTSCPDTEFVFKGDDDVFVNTHHILNYLNSLSKTKAKDLFIGDVIHNAGPHRDKKLKYYIPEVVYSGLYPPYAGGGGFLYSGHLALRLYHITDQVHLYPIDDVYTGMCLQKLGLVPEKHKGFRTFDIEEKNKNNICSYVDLMLVHSRKPQEMIDIWSQLQSAHLKC
notes: Overexpressed in cells and pulled down from the lysate with mouse anti-FLAG antibody; also called C-FLAG B3GNT2; C-term flag; not shown: C-terminal FLAG tag
